Consider one molecule from patent publication US10975360B2, “Process for the modification of alkanes, fatty acids and fatty alcohols” (priority 2016, dated 2021).

Series [1] can be described thus: Biotransformation of tetradecanoic acid using CFE of E. coli, Tris-HCl buffer. The class given is biochemical. The conditions noted are these: 5 mmol/L substrate, CFE of E. coli, Tris-HCl, 24 h. The procedure:
(§1) Expression of genes in E. coli was performed by using ZYP-5052 auto-induction medium (Table 1) with in the case of the CYP 1 mM 5-aminolevulinic acid and 0.05 mM FeCl3 added. The CYP505E3 culture was cultivated using baffled flasks and incubated at 20° C. and 180 rpm for 24 h, while the GDH, and HLADH expressing cultures were all cultivated at 25° C. and 200 rpm for 24 h. Cultures were harvested through centrifugation (6 000×g, 10 min) and 1 g (wet weight) resuspended in 2 ml, 5 ml or 10 ml Tris-HCl, Phosphate or MOPS buffer, as indicated, (pH 8, 200 mM) containing 100 mM of glucose and glycerol. CFEs were obtained by a single passage of the suspended cells through a One Shot Cell Disrupter (Constant Systems) at 207 MPa. The soluble fraction was separated from unbroken cells by centrifugation (20 000×g, 20 min).
(§2) The biotransformation reaction mixture (BRM) consisted of CYP and GDH CFE suspensions prepared from cells in Tris-HCl buffers (1 g wet weight in 2 ml buffer) mixed in a 1:1 ratio with 0.1 mM NADPH added. Dodecanoic acid, tetradecanoic acid, hexadecanoic acid, 1-tetradecanol and 1-hexadecanol (20 μl of a 255 mM stock solution in DMSO) were added to 40 ml amber glass vials containing 1 ml BRM to give final substrate concentrations of 5 mmol·LBRM^−1. These vials were placed on an orbital shaker at 20° C., 200 rpm, oscillation amplitude 26 mm. Vials were removed after 24 h for extraction. Biotransformations were stopped by adding 170 ul of 0.5M HCl, extracted with 2×500 μl EtOAc and subjected to GC-MS analysis. A sample of δ-dodecalactone in ethyl acetate (0.1 mM) was also methylated with TMSH and subjected to GC-MS analysis.

Series [2] can be described thus: Biotransformation of hexadecanoic acid using CFE of E. coli, Tris-HCl buffer. The class given is biochemical. The procedure:
as §1, §2

Series [3] is classed as biochemical, E. coli. The procedure:
as §1
Biotransformations of dodecane, tetradecane and hexadecane were carried using only CYP505E3 containing CFE prepared from an E. coli cell suspension (1 g wet weight in 10 ml buffer) in MOPS buffer (200 mM, pH 8) containing glucose and glycerol (100 mM each) as well as 0.1 mM NADPH. Alkane substrates (250 μL) were added to 1 mL BRM in 40 ml amber glass vials. These vials were placed on an orbital shaker at 20° C., 200 rpm, oscillation amplitude 26 mm and incubated for 24 h.

The nature of series [4]: Time course of biotransformation of 50 mM C12 fatty acid using CFE of E. coli in MOPS buffer. The class given is biochemical. Particulars: 50 mM dodecanoic acid, 0.2 μM CYP. The procedure:
as §1, with “min). […]” for “min).”
After extraction aliquots (50 μl) of ethyl acetate extracts containing both decanoic acid and tetradecanol as internal standards were methylated for GC-MS analysis while the rest of the extracts were washed with a Na2CO3 (5% w/v) solution to remove the fatty acids. The washed ethyl acetate extracts were also analysed by GC-MS and the δ-dodecalactone and γ-dodecalactone concentrations determined from a standard curve.

The format of series [5] is biochemical. As to the method:
To convert 1,5-dodecanediol to δ-dodecalactone 170 μL of an ethyl acetate extract containing 150 mM dodecanol and 5.5 mM 1,5-dodecanediol was placed in a 40 mL vial and the ethyl acetate evaporated by incubating the vial at 100° C. for 5 min. After evaporation of the ethyl acetate the dodecanol/dodecanediol mixture was resuspended in 1 mL of an HLADH expressing culture of E. coli permeabilized with Triton X100 (1% v/v was added and the cell suspension incubated at 37° C. for 10 min). This reaction mixture containing 1 mM of 1,5-dodecanediol and 25 mM of dodecanol was incubated at 30° C. and 180 rpm for 24 h. It was then extracted with ethyl acetate (2×0.5 mL) containing 2 mM undecanol as internal standard and analysed on a VF5 column using a GC with FID detector for quantification and a GC-MS with a Chiraldex G-TA column (30 m×0.25 mm ID) to determine enantioselectivity. The ethyl acetate extract contained 0.2 mM 1,5-dodecanediol and 0.65 mM δ-dodecalactone (R:S ratio 84:16, ee 67%) while the δ-dodecalactone produced from dodecanoic acid in previous experiments using CYP505E3 was an almost racemic mixture (R:S ratio 55:45, ee 10%) (FIG. 12).

B1: CYP505E3: self-sufficient cytochrome P450 monooxygenase from Aspergillus terreus, SEQ ID No 1 (protein, listed as Aspergillus terreus)
chain: MIKETEQIPGPRPLPVVGNLFDMDLEHGLECLIRLADDFGPLFQITINGEKQIFATSQALVDELCDESRFHKAVMGGLEKLRMLASDGLFTAYHGERGWGIAHRILVPAFGPLRIRNMFEEMNDVAQQLCLKWARQGSSTSINITDDFTRLTLDTIALCTMNFRLNSFYNNETMHPFVKSMLYVLRESDIQSMLPGIANCIRVKARSRMSKHIQLMRNMARGIIQERRDQAEPVDDLLNTLLNGRDPVTGEGMSDDLIINNVITFLIAGHETTSGLLSFTFYYLLQNPHILERAQNEVDEVTGGERITVQHLGRLTYIDAILKESLRLMPTAPAFTVTPKKPEVLGGAWAIDAGQAVNVLLPVCLRDRSVFGPDADEFRPERMLEENFSKLPPNSWKPFGNGERSCIGRAFAWQEAQLVVAMVLQTFDLVPDDPSYKLRIKETLTIKPDGFRVRATLRRGQSATGLSQGSMSASGATSSVASPGPPAATGAQSNPAGGQRISFFYGSNSGTCKALAHRLASSLMGRGFTEQKLAALDTVVGNLPTDQPVIIVTTSYDGRPTDDAEEFVRWLESKRPVLQGVSYAVFGCGHHDWAKTFYRIPILIDDLMHKAGATRLTALGTANAAVSDLFSDLELWEETNLLPALREAFPPSNSSDVESSEPHQLQICVSKPRRVDMHRGLVEAKVTAVRTLTSPDSPEKRHVEFHVQGDTTWRPGDHVNILPVNPLSTVSRVLAYFQLAPDHSITVNSFNTQGLPSATPVSATELFSSFVELSQPATRKNLKALAMAAESKTDEQELIRLHDSYDALVRDKRVSVLDILERFPSISLPIGIFISMLPPLRLRTYSLSMAPSFKPSHGSLTFSVINEPAWSGNGQYLGVGSNYLASLTPGSLLYLSPRPAKDAFHLPADQFNTPIIMICAGSGLAPFMGFIQERMTWLKQGRPLAKGLLFFGCRGPHLDDLYYEELSEFEDAGVVEVHRAYSRAPDDVRAKGCRHVQHRLVTEAEAVRDHWGRNAIVYVCGSSNMARGVQTVLEEILGTLPPERYVAEIF
For B1, in series [1], the “products identified from tetradecanoic acid (GC-MS, methylated samples)” value is given as 7-hydroxy tetradecanoic acid. In addition, in series [2] (5 mmol/L substrate, Tris-HCl, 24 h), the “products identified from hexadecanoic acid (GC-MS, methylated samples)” value is on record as 9-hydroxy hexadecanoic acid. In addition, in series [2] (C16 fatty acid, GC-MS peak height), the “ω-7 hydroxylase activity C16FA” value is “++ (++ 0.1 million < RA < 1 million)”. Also, in series [3], the “product from dodecane (GC-MS)” value is given as 5-dodecanol and the “product from tetradecane (GC-MS)” value is reported as 7-tetradecanol. Also, in series [4] (Na2CO3 washed, not methylated), the “lactone concentrations in the washed ethyl acetate samples” value was determined as 0.6 mmol·LBRM^−1. Also, the “lactone concentrations in the unwashed samples” value in series [4] (unwashed, methylated) was 1.6 mmol·LBRM^−1. In series [5], the “δ-dodecalactone R:S ratio” value is 55:45 and the δ-dodecalactone ee was 10%.
